# Test results: patent US20090053241A1 (Eli Lilly, published 2009)
# T1: mPDGFRβ/Fc (mouse, UniProt P05622 32-530, limits assumed)
# T1 construct: The methods say 'mPDGFRβ' for ELISA plates and the BIAcore chip; also called murine PDGFRβ; mouse PDGFRβ; not shown: Fc part; detected with a goat anti-human Fc antibody
# T1 sequence (looked up): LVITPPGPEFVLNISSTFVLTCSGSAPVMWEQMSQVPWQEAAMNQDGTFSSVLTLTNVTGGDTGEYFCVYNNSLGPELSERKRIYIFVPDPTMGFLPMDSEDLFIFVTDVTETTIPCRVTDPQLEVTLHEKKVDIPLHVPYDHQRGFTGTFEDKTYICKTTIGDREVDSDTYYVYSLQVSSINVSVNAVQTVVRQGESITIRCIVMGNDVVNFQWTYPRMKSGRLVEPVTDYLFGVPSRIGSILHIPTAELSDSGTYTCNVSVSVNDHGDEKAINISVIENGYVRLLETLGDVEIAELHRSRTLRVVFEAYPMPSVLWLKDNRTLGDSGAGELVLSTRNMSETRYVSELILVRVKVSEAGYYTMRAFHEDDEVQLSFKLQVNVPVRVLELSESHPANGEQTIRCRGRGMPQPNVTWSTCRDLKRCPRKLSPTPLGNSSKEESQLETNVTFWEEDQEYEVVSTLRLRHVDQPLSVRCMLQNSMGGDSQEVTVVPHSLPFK
# B1: 1B3 IgG (full-length human anti-mouse PDGFRβ antibody) (antibody, V domains shown)
# VH: QVQLQESGGGLVKPGGSLRLSCAASGFTFSSYSMNWVRQAPGKGLEWVSSISSSSSYIYYADSVKGRFTISRDNSKNTLYLQMNSLRAEDTAVYYCAKGGRPLLVFDFWGQGTLVTVS
# VL: EIVMTQSPGTLSLSPGERATLSCRASQSVSSSYLAWYQQKPGQAPRLLIYDASKRATGIPARFSGSGSGTDFTLTISTLESEDSAVYYCQQRGYWPPITFGQGTRLEIKR
# notes: also called 1B3 antibody; anti-mPDGFRβ antibody 1B3
# B2: 1B3 Fab (Fab, V domains shown)
# VH: B1 VH
# VL: B1 VL
# notes: also called 1B3 Fab fragment; clone 1B3
# B3: 1121 IgG (antibody, V domains shown)
# VH: EVQLVQSGGGLVKPGGSLRLSCAASGFTFSSYSMNWVRQAPGKGLEWVSSISSSSSYIYYADSVKGRFTISRDNAKNSLYLQMNSLRAEDTAVYYCARVTDAFDIWGQGTMVTVSS
# VL: DIQMTQSPSSVSASIGDRVTITCRASQGIDNWLGWYQQKPGKAPKLLIYDASNLDTGVPSRFSGSGSGTYFTLTISSLQAEDFAVYFCQQAKAFPPTFGGGTKVDIK
# notes: The sheet prints '1121 IgG'; also called IMC-1121; antibody directed against human VEGFR2
# B4: 2C5 (human anti-PDGFRβ antibody) (antibody, V domains shown)
# VH: QVQLVQSGAEVKKPGSSVKVSCKASGGTFSSYAISWVRQAPGQGLEWMGRIIPILGIANYAQKFQGRVTITADKSTSTAYMELSSLRSEDTAVYYCARDMGSRNYYYFYWGQGTLVTVSS
# VL: EIVLTQSPATLSLSPGERATLSCRASQSVGRYLAWYQQKPGQAPRLLIYGASNRATGIPARFSGSGSGTDFTLTISSLEPEDFAVYYCQQRSNWPLTFGGGTKVEIKR
# notes: also called 2C5 antibody; anti-PDGFRβ antibody 2C5
# Key:
# mPDGFRβ/Fc [1] = biological target: T1, mPDGFRβ/Fc; test: blocking ELISA, panel 'BLOCKING PDGF-BB BINDING TO mPDGFRβ'; blocked ligand PDGF-BB
# mPDGFRβ/Fc [2] = biological target: T1, mPDGFRβ/Fc; test: SPR (BIAcore), mPDGFRβ immobilized
# Procedure: Antibody affinity determination. […] Sensorgrams were obtained at each concentration and were evaluated using the program, BIA Evaluation 2.0. The affinity constant, Kd, was calculated from the ratio of dissociation rate (koff)/association rate (kₒₙ) (Lu, D. et al., 2002; Zhu, Z. et al., 1998; Loizos, N. et al., 2005).
# mPDGFRβ/Fc [3] = biological target: T1, mPDGFRβ/Fc; test: ELISA, panel 'BINDING TO mPDGFRβ'
# mPDGFRβ/Fc [4] = biological target: T1, mPDGFRβ/Fc; test: direct binding ELISA on mPDGFRβ/Fc-coated plates (printed as IC50; FIG. 1A)
# Procedure: (§1) Plate-bound antibodies were detected with a goat anti-human-κ antibody-HRP. […] IMC-1121 is an antibody directed against human VEGFR2. Data represent the mean±SD of triplicate samples.
# (§2) Quantitative receptor binding and blocking assays. […] The plates were then incubated at RT for an additional 1 h with a goat anti-human-κ antibody-horse radish peroxidase (HRP) conjugate (Jackson ImmunoResearch, West Grove, Pa.). The plates were washed and developed as previously described (Lu, D. et al., 2002; Zhu, Z. et al., 1998). […] After washing 3 times with PBST, the plates were incubated with a goat anti-human Fc antibody-HRP conjugate (Jackson ImmunoResearch) for 1 h, and developed as described (Lu, D. et al., 2002; Zhu, Z. et al., 1998; Loizos, N. et al., 2005).
# mPDGFRβ/Fc [5] = biological target: T1, mPDGFRβ/Fc; test: blocking ELISA: antibody mixed with mPDGFRβ/Fc, PDGF-BB-coated plates (FIG. 1B)
# Procedure: as §1, §2
# [6] = biological target: T2, human PDGFRβ (soluble recombinant protein) (human, UniProt P09619 33-530, limits assumed); test: ELISA, panel 'BINDING TO hPDGFRβ'
# T2 construct: the construct is not described; also called hPDGFRβ
# mPDGFRβ/Fc [7] = biological target: T1, mPDGFRβ/Fc; test: blocking ELISA: Fab mixed with mPDGFRβ/Fc, PDGF-BB-coated plates (FIG. 1B)
# Procedure: as §1, §2
# mPDGFRβ/Fc [8] = biological target: T1, mPDGFRβ/Fc; test: ELISA on mPDGFRβ/Fc-coated plate (1 µg/ml), detection with goat anti-human-κ antibody-HRP
# Procedure: as §1, §2
# mPDGFRβ/Fc [9] = biological target: T1, mPDGFRβ/Fc; test: blocking of PDGF-BB binding to mPDGFRβ (FIG. 6)
# [10] = biological target: T2, human PDGFRβ (soluble recombinant …); test: blocking of PDGF-BB binding to hPDGFRβ (FIG. 6)
# [11] = biological target: T3, β1-2 (shorter version of PDGFRβ, D1D2); test: ELISA (OD450), panel '2C5 BINDING TO hPDGFRβ DELETIONS'; axis 'CO…ON (nM)', titrated species not stated
# T3 construct: domain: D1D2
# h5β [12] = biological target: T4, h5β (human, UniProt P09619 33-530, limits assumed); test: as above
# T4 construct: domain: domains 1-5 (read from the label); read as human PDGFRβ with all five domains
# [13] = biological target: T5, β1-3 (shorter version of PDGFRβ, D1D2D3); test: as above
# T5 construct: domain: D1D2D3
# h5β [14] = biological target: T4, h5β; test: ELISA (OD450), panel '2C5 BINDING TO PDGFRβ/α CHIMERAS'; axis 'CO…ON (nM)', titrated species not stated
# [15] = biological target: human PDGFRβ, cell-surface-expressed receptor on human tumor cell lines (human, UniProt P09619 33-1106); test: cell-based or functional assay
# [16] = biological target: mouse PDGFRβ on cells (NIH/3T3, D122, 4T1, B16) (mouse, UniProt P05622 32-1098); test: cell-based or functional assay
# T2 sequence (P09619 33-530 limits assumed): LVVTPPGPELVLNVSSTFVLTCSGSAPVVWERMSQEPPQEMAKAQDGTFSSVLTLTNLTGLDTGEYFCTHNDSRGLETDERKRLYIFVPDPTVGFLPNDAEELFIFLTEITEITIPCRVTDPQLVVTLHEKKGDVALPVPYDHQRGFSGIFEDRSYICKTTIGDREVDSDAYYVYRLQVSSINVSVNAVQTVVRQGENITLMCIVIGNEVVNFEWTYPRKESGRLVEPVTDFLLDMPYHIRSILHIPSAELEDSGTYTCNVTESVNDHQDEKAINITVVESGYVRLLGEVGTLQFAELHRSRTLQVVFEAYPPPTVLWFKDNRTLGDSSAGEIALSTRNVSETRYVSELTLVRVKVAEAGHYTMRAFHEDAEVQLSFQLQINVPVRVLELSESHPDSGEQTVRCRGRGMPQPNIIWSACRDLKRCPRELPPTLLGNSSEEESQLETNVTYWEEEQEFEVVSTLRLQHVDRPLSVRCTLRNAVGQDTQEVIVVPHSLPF
# T4 sequence (P09619 33-530 limits assumed): as above
# Sequence of human PDGFRβ, cell-surface-expressed receptor on human tumor cell lines (P09619 33-1106): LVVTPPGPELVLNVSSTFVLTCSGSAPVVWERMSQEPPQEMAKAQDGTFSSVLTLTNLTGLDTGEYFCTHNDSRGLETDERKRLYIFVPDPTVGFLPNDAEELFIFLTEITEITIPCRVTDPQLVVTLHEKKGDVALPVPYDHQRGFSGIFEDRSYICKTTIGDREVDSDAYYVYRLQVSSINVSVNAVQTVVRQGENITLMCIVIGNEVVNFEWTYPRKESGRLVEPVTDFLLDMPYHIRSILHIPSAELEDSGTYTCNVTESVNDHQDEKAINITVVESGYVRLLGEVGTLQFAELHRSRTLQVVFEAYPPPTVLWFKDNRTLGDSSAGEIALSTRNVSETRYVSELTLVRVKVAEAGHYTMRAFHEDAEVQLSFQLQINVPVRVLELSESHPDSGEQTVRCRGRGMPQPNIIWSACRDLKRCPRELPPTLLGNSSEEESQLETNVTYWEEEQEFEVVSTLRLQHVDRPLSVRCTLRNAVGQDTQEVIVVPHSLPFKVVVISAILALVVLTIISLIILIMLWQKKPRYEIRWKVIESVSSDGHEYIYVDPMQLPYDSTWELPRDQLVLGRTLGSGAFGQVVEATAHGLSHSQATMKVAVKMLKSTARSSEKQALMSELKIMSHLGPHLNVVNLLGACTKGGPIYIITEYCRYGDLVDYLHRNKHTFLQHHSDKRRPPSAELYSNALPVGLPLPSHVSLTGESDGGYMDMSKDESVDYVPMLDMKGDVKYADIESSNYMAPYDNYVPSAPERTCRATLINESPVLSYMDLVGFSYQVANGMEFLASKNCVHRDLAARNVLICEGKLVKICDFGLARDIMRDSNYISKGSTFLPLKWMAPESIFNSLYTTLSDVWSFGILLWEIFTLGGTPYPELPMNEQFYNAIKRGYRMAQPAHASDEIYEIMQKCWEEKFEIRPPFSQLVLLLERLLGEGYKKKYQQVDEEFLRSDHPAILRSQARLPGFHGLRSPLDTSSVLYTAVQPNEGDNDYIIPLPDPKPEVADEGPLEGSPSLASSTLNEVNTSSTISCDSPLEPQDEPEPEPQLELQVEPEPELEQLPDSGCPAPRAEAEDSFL
binder,measurement,setting,value
B1,IC50,mPDGFRβ/Fc [1],370 pM
same,Kd,mPDGFRβ/Fc [2],90 pM
same,fold increase in affinity over its Fab form,mPDGFRβ/Fc [2],~57 times
same,EC50 (read off the curve),mPDGFRβ/Fc [3],~70 pM
same,EC50,mPDGFRβ/Fc [4],340 pM
same,IC50,mPDGFRβ/Fc [5],1200 pM
same,binding result,[6],no binding (tested: about 1e-8 M)
B2,Kd,mPDGFRβ/Fc [2],5100 pM
same,EC50,mPDGFRβ/Fc [4],1300 pM
same,IC50,mPDGFRβ/Fc [7],4100 pM
B3,binding result,mPDGFRβ/Fc [8],no binding (tested: 10 nM)
B4,IC50,mPDGFRβ/Fc [9],350 pM
same,IC50,[10],550 pM
same,EC50 (read off the curve),[11],~100 pM
same,EC50 (read off the curve),h5β [12],~60 pM
same,EC50 (read off the curve),[13],~70 pM
same,EC50 (read off the curve),mPDGFRβ/Fc [3],~100 pM
same,EC50 (read off the curve),h5β [14],~50 pM
same,"PDGFRβ phosphorylation in human Caki-1 tumor cells, IC50",[15],< 1.8 µg/mL
same,"PDGFRβ phosphorylation in mouse NIH/3T3 and D122 cell lines, IC50",[16],< 1.8 µg/mL
same,EC50 (read off the curve),[6],~100 pM
